T1: His-tagged monkey MUC1 (fasMUC1-His) (monkey, UniProt Q29435 181-380, limits assumed)
T1 construct: not shown: His tag
T1 chain: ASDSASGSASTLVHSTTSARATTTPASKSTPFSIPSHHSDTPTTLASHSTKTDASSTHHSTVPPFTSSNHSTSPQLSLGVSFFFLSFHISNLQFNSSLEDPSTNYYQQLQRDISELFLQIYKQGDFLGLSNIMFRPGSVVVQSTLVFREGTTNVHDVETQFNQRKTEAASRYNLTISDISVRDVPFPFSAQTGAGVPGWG

T2: monkey (Macaca fascicularis) MUC1 on CHO-S-fasMUC1 cells (monkey (Macaca fascicularis))
T2 construct: CHO-S cells transfected with vectors expressing fasMUC1; also called monkey MUC1
T2 chain: T1 chain

B1: E-9A6-M-11E8 (bispecific antibody)
heavy 1: not shown
heavy 2: QVQLVQSGGGVVQPGRSLRLSCAASGFTFSSYAMHWVRQAPGKGLEWVAVISDDGINKYYADSVKGRFTISRDNSKNTLYLQMNSLRAEDSAVYYCARALPTIFGVVMYFYYGLDVWGQGTTATVSSASTKGPSVFPLAPSSKSTSGGTAALGCLVKDYFPEPVTVSWNSGALTSGVHTFPAVLQSSGLYSLSSVVTVPSSSLGTQTYICNVNHKPSNTKVDKKVEPKSCDKTHTCPPCPAPELLGGPSVFLFPPKPKDTLMISRTPEVTCVVVDVSHEDPEVKFNWYVDGVEVHNAKTKPREEQYNSTYRVVSVLTVLHQDWLNGKEYKCKVSNKALPAPIEKTISKAKGQPREPQVCTLPPSREEMTKNQVSLSCAVKGFYPSDIAVEWESNGQPENNYKTTPPVLDSDGSFFLVSKLTVDKSRWQQGNVFSCSVMHEALHNHYTQKSLSLSPGK
light: not shown
notes: Knobs-into-holes bispecific with a common light chain; also called anti-EGFR/MUC1 bispecific antibody
B2: E-6C4-M-11E8 (bispecific antibody)
heavy 1: not shown
heavy 2: B1 heavy 2
light: not shown
notes: as for B1
B3: E-9D2-M-11E8 (bispecific antibody)
heavy 1: not shown
heavy 2: B1 heavy 2
light: not shown
notes: as for B1
B4: E-9H2-M-11E8 (bispecific antibody)
heavy 1: not shown
heavy 2: B1 heavy 2
light: not shown
notes: Knobs-into-holes bispecific with a common light chain; also called anti-EGFR/MUC1 bispecific antibody; E-9H2-M-llE8
B5: E-9F3-M-11E8 (bispecific antibody)
heavy 1: not shown
heavy 2: B1 heavy 2
light: not shown
notes: as for B1

molecular target: T3, His-tagged human EGFR protein (hEGFR-His, ACROBiosystems Inc., Cat #: EGR-H5222) (human, UniProt P00533 25-645); test: SPR, Biacore 8K, 1:1 fit;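 note: His-tagged targets captured on the chip at roughly 100 RU, antibody analytes flowed at 1 µg/mL in HBS-EP+ pH 7.4, 50 s association, 400 s dissociation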
T3 construct: Bought protein; not shown: His tag

First: B1
Second: B2
The Kd of the first is 17-fold lower: 5.54 nM for the first, 91.8 nM for the second.

B3 and B4 are within 1.5-fold of each other in Kd: 59.5 nM for the first, 88.3 nM for the second.

Work on B5 yielded a Kd of 28.7 nM.

Going from B1 to B2, the koff rises from 0.00101 s⁻¹ to 0.0264 s⁻¹ (26-fold).

B3 and B4 are within 1.5-fold of each other in koff: 0.02 s⁻¹ for the first, 0.0157 s⁻¹ for the second.

For B5, the koff was 0.00203 s⁻¹.

Compared with B1, B2 is 1.6-fold higher in kon: 183000 M⁻¹ s⁻¹ for the first, 287000 M⁻¹ s⁻¹ for the second.

Going from B3 to B4, the kon falls from 337000 M⁻¹ s⁻¹ to 178000 M⁻¹ s⁻¹ (1.9-fold).

With B5 the kon was 70700 M⁻¹ s⁻¹.

molecular target: T4, His-tagged monkey EGFR protein (fasEGFR-His, ACROBiosystems Inc., Cat #: EGR-C52H1) (monkey); test: SPR, Biacore 8K, 1:1 fit;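 note: His-tagged targets captured on the chip at roughly 100 RU, antibody analytes flowed at 1 µg/mL in HBS-EP+ pH 7.4, 50 s association, 400 s dissociation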
T4 construct: Bought protein
Protocol: (§1) Specifically, his-tagged proteins were diluted to 200 nM, with 1×HBS-EP+buffer (PH 7.4) and then injected into the Biacore™ 8K biosensor at 10 μL/min for about 50 seconds to achieve a desired protein density (e.g., about 100 response units (RU)). Purified antibodies at 1 μg/mL in 1× HBS-EP+buffer (PH 7.4) were then injected at 10 μL/min for 50 seconds.
(§2) Dissociation was monitored for 400 seconds. The chip was regenerated after the last injection of each titration with a glycine solution (pH 1.5) at 30 L/min for 30 seconds.

Compared with B1, B2 is 15-fold higher in Kd: 5.44 nM for the first, 79.3 nM for the second. The first binds more tightly here.

Going from B3 to B4, the Kd rises from 52.2 nM to 80.1 nM (1.5-fold). The first binds more tightly here.

B5 was tested, and the Kd was 28.7 nM.

First: B1
Second: B2
The koff of the first is 25-fold lower: 0.00116 s⁻¹ for the first, 0.0291 s⁻¹ for the second.

B3 and B4 are within 1.5-fold of each other in koff: 0.0248 s⁻¹ for the first, 0.0173 s⁻¹ for the second.

Work on B5 yielded a koff of 0.00193 s⁻¹.

Going from B1 to B2, the kon rises from 213000 M⁻¹ s⁻¹ to 367000 M⁻¹ s⁻¹ (1.7-fold).

Compared with B3, B4 is 2.2-fold lower in kon: 476000 M⁻¹ s⁻¹ for the first, 215000 M⁻¹ s⁻¹ for the second.

B5 gave a kon of 67100 M⁻¹ s⁻¹.

molecular target: T5, His-tagged human MUC1 protein hMUC1(961-1152)-His (human, UniProt P15941 961-1152); test: SPR, Biacore 8K, 1:1 fit;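 note: His-tagged targets captured on the chip at roughly 100 RU, antibody analytes flowed at 1 µg/mL in HBS-EP+ pH 7.4, 50 s association, 400 s dissociation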
T5 construct: also called hMUC(961-1152)-His; not shown: His tag

First: B1
Second: B2
The Kd of the first is 3.8-fold higher: 9.99 nM for the first, 2.66 nM for the second.

First: B3
Second: B4
The Kd of the first is 2.2-fold lower: 2.79 nM for the first, 6.19 nM for the second. The first binds more tightly here.

With B5 the Kd was 2.63 nM.

Compared with B1, B2 is 2-fold lower in koff: 0.00218 s⁻¹ for the first, 0.00109 s⁻¹ for the second.

B3 and B4 are within 1.5-fold of each other in koff: 0.000543 s⁻¹ for the first, 0.000571 s⁻¹ for the second.

In the case of B5, the koff is reported as 0.000881 s⁻¹.

Going from B1 to B2, the kon rises from 218000 M⁻¹ s⁻¹ to 410000 M⁻¹ s⁻¹ (1.9-fold).

First: B3
Second: B4
The kon of the first is 2.1-fold higher: 195000 M⁻¹ s⁻¹ for the first, 92300 M⁻¹ s⁻¹ for the second.

In the case of B5, the kon is reported as 336000 M⁻¹ s⁻¹.

Molecular target: T1, His-tagged monkey MUC1 (fasMUC1-His)
Test: SPR, Biacore 8K, 1:1 fit;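 note: His-tagged targets captured on the chip at roughly 100 RU, antibody analytes flowed at 1 µg/mL in HBS-EP+ pH 7.4, 50 s association, 400 s dissociation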
Protocol: as §1, §2

First: B1
Second: B2
The Kd of the first is 1.6-fold higher: 40.5 nM for the first, 25.7 nM for the second. The second binds more tightly here.

Going from B3 to B4, the Kd falls from 19.1 nM to 2.69 nM (7.1-fold).

In the case of B5, the Kd is reported as 25.7 nM.

Going from B1 to B2, the koff falls from 0.0162 s⁻¹ to 0.0102 s⁻¹ (1.6-fold).

Going from B3 to B4, the koff falls from 0.00896 s⁻¹ to 0.00105 s⁻¹ (8.5-fold).

For B5, the koff was 0.011 s⁻¹.

B1 and B2 are within 1.5-fold of each other in kon: 401000 M⁻¹ s⁻¹ for the first, 398000 M⁻¹ s⁻¹ for the second.

B3 and B4 are within 1.5-fold of each other in kon: 470000 M⁻¹ s⁻¹ for the first, 389000 M⁻¹ s⁻¹ for the second.

In the case of B5, the kon is reported as 426000 M⁻¹ s⁻¹.

molecular target: T6, human MUC1 (484 amino acids) on CHO-S-hMUC1 (484AA) cells (human, UniProt P15941 24-1158); test: flow cytometry, transfected CHO-S cells, 5 ug/mL
T6 construct: CHO cells transfected with vectors expressing 484 amino acids of human MUC1
Protocol: (§3) The anti-EGFR/MUC1 bispecific antibodies (5 μg/mL) were added to the 96-well plate, and incubated at 4° C. for 30 min. […] For the negative control (NC), only cells were added and no antibodies were added.

Compared with B1, B2 is higher in “Percentage of Positive Cells (%)” value: 93.5% for the first, 94% for the second.

Going from B3 to B4, the “Percentage of Positive Cells (%)” value rises from 93.8% to 94%.

With B5 the “Percentage of Positive Cells (%)” value was 94.2%.

Molecular target: T2, monkey (Macaca fascicularis) MUC1 on …
Test: flow cytometry, transfected CHO-S cells, 5 ug/mL
Protocol: as §3

First: B1
Second: B2
The “Percentage of Positive Cells (%)” value of the first is lower: 45.1% for the first, 48.2% for the second.

B3 and B4 are the same in “Percentage of Positive Cells (%)” value: 47% for the first, 47% for the second.

In the case of B5, the “Percentage of Positive Cells (%)” value is reported as 45.5%.

molecular target: T7, human EGFR on CHO-S-hEGFR cells (human, UniProt P00533 25-645); test: flow cytometry, transfected CHO-S cells, 5 ug/mL
T7 construct: CHO-S cells transfected with vectors expressing hEGFR
Protocol: as §3

First: B1
Second: B2
The “Percentage of Positive Cells (%)” value of the first is higher: 63.3% for the first, 48.1% for the second.

Compared with B3, B4 is lower in “Percentage of Positive Cells (%)” value: 50.1% for the first, 49.3% for the second.

With B5 the “Percentage of Positive Cells (%)” value was 58.8%.

molecular target: T8, monkey EGFR on CHO-S-fasEGFR cells (monkey, UniProt P55245 25-645); test: flow cytometry, transfected CHO-S cells, 5 ug/mL
T8 construct: CHO-S cells transfected with vectors expressing fasEGFR
Protocol: as §3

Compared with B1, B2 is lower in “Percentage of Positive Cells (%)” value: 23% for the first, 18.3% for the second.

Going from B3 to B4, the “Percentage of Positive Cells (%)” value falls from 16.8% to 15.1%.

In the case of B5, the “Percentage of Positive Cells (%)” value is reported as 20.5%.

Source: patent publication US20260217860A1 (BIOCYTOGEN PHARMACEUTICALS BEIJING, published 2026)
